Tests used:
[1] = target: T1, CSPG4 endogenous on HeLa cells (human, UniProt Q6UVK1 30-2322); assay: binding to HeLa cells; largely abolished in CSPG4^-/- cells
T1 construct: whole, on cells

[2] = target: T2, FZD2-CRD-Fc, recombinant human protein (ACRO Biosystems) (human, UniProt Q14332 24-190); assay: GST pull-down, immunoblot
T2 construct: domain: cysteine-rich domain (CRD); also called Fc-tagged FZD2-CRD; FZD2-Fc; not shown: Fc tag of the purchased protein

T1 sequence (Q6UVK1 30-2322): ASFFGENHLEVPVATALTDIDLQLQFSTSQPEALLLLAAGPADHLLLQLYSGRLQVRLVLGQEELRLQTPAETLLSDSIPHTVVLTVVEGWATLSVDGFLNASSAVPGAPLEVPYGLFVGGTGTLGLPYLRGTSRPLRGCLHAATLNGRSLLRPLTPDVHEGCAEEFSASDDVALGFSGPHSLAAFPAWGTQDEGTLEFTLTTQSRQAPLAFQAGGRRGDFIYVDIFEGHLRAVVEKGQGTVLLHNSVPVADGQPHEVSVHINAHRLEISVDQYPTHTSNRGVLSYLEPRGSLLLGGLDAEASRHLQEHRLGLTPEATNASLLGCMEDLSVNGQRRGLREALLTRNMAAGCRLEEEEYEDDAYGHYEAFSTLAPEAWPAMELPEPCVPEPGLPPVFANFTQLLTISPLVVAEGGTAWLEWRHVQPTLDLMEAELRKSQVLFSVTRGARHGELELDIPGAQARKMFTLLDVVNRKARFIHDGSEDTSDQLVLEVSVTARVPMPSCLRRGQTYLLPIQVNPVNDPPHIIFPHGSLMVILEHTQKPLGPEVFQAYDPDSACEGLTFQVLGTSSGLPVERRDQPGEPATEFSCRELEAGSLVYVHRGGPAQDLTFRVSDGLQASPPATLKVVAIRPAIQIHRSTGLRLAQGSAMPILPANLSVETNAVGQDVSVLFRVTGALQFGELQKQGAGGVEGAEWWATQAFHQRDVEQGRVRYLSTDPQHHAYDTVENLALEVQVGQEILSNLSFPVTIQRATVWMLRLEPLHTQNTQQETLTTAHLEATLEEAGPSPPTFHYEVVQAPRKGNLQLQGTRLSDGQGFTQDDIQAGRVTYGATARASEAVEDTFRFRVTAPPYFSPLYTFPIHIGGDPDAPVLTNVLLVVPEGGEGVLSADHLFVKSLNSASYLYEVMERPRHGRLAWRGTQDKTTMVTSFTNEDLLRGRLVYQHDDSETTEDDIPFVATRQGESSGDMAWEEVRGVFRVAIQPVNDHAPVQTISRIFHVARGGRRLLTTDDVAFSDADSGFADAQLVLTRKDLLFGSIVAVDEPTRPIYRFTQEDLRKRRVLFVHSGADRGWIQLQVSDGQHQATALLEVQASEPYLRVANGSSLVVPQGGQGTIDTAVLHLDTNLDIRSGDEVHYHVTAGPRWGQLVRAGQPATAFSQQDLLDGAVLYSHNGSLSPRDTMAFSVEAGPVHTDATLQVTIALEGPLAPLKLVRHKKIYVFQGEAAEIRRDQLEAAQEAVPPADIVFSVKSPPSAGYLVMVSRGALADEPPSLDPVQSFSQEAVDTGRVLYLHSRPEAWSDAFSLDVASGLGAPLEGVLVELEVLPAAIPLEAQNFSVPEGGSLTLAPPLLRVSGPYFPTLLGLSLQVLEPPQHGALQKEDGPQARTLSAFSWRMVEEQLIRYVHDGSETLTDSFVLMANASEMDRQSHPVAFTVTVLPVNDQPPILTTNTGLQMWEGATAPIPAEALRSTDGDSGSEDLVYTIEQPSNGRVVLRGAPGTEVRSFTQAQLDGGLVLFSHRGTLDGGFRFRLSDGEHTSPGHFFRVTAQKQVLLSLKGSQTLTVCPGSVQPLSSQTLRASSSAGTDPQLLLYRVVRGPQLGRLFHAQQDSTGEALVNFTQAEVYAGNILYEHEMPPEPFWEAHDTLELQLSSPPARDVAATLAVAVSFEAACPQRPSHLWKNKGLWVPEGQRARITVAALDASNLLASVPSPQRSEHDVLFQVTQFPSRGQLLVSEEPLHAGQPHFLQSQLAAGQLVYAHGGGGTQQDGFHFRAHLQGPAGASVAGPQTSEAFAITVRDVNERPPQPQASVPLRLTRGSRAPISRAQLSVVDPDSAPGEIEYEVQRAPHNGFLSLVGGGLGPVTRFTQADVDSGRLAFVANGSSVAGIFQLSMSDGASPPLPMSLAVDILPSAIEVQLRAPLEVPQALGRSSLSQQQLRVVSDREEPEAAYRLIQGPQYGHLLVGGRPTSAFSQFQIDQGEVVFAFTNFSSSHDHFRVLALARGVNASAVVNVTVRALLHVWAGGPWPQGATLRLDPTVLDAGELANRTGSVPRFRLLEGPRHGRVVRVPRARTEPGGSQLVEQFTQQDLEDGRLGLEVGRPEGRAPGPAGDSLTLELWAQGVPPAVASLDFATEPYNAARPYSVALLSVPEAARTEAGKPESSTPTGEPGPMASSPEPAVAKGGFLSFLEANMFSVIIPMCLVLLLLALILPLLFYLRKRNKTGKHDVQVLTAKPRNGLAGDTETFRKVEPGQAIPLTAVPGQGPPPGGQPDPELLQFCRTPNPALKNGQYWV

Row | Binder | binding result [1] | binding result [2]
1 | CROPs fragment of TcdB (TcdB1831-2366) as used in the cell-binding assays (other) MVSGLIYINDSLYYFKPPVNNLITGFVTVGDDKYYFNPINGGAASIGETIIDDKNYYFNQSGVLQTGVFSTEDGFKYFAPANTLDENLEGEAIDFTGKLIIDENIYYFDDNYRGAVEWKELDGEMHYFSPETGKAFKGLNQIGDYKYYFNSDGVMQKGFVSINDNKHYFDDSGVMKVGYTEIDGKHFYFAENGEMQIGVFNTEDGFKYFAHHNEDLGNEEGEEISYSGILNFNNKIYYFDDSFTAVVGWKDLEDGSKYYFDEDTAEAYIGLSLINDGQYYFNDDGIMQVGFVTINDKVFYFSDSGIIESGVQNIDDNYFYIDDNGIVQIGVFDTSDGYKYFAPANTVNDNIYGQAVEYSGLVRVGEDVYYFGETYTIETGWIYDMENESDKYYFNPETKKACKGINLIDDIKYYFDEKGIMRTGLISFENNNYYFNENGEMQFGYINIEDKMFYFGEDGVMQIGVFNTPDGFKYFAHQNTLDENFEGESINYTGWLDLDEKRYYFTDEYIAATGSVIIDGEEYYFDPDTAQLVISE | binds | –
2 | GST-tagged CROPs region of TcdB (residues 1831-2366) (other) MVSGLIYINDSLYYFKPPVNNLITGFVTVGDDKYYFNPINGGAASIGETIIDDKNYYFNQSGVLQTGVFSTEDGFKYFAPANTLDENLEGEAIDFTGKLIIDENIYYFDDNYRGAVEWKELDGEMHYFSPETGKAFKGLNQIGDYKYYFNSDGVMQKGFVSINDNKHYFDDSGVMKVGYTEIDGKHFYFAENGEMQIGVFNTEDGFKYFAHHNEDLGNEEGEEISYSGILNFNNKIYYFDDSFTAVVGWKDLEDGSKYYFDEDTAEAYIGLSLINDGQYYFNDDGIMQVGFVTINDKVFYFSDSGIIESGVQNIDDNYFYIDDNGIVQIGVFDTSDGYKYFAPANTVNDNIYGQAVEYSGLVRVGEDVYYFGETYTIETGWIYDMENESDKYYFNPETKKACKGINLIDDIKYYFDEKGIMRTGLISFENNNYYFNENGEMQFGYINIEDKMFYFGEDGVMQIGVFNTPDGFKYFAHQNTLDENFEGESINYTGWLDLDEKRYYFTDEYIAATGSVIIDGEEYYFDPDTAQLVISE | – | no binding (tested: 10 nM FZD2-CRD-Fc)

— patent US20190031734A1 (CHILDREN S MEDICAL CENTER, published 2019)
